Consider 2 proteins from patent US20110159569A1 (AJOU UNIVERSITY INDUSTRYACADEMIC COOPERATION FOUND, published 2011).

This data set concerns the molecule itself. The experiment in a line: size exclusion chromatography (HPLC, TSK G3000SW xL), self-association. On the procedure: 0.02 ml of 5 to 20 μM protein was injected into a TSK G3000SW xL column (TosoHaas, Japan), and a phosphate buffered solution (50 mM sodium phosphate/150 mM NaCl, pH7.4) flowed at a rate of 0.7 ml/min. In this case, the chromatogram was obtained by measuring absorbance values at 280 nm.

B1: 3D8 VL protein (other)
VL: DLVMSQSPSSLAVSAGEKVTMSCKSSQSLFNSRTRKNYLAWYQQKPGQSPKLLIYWASTRESGVPDRFTGSGSGTDFTLTISSVQAEDLAVYYCKQSYYHMYTFGSGTKLEIK
notes: Isolated light chain variable domain of the anti-nucleic acid antibody 3D8, purified as a single domain and immobilized on a CM5 chip for SPR; also called VL chain; VL domain
As for B1, the binding result is “no binding (tested: 5 to 20 µM)”.

B2: 3D8 VH protein (other)
VH: AREVQLQQSGPELVKPGASVKMSCKASGYTFTSYVMHWVKQKPGQGLEWIGYINPYNDGTKYNEKFKGKATLTSDKSSSTAYMELSSLTSEDSAVYYCARGAYKRGYAMDYWGQGTSVTVSS
notes: Isolated heavy chain variable domain of the anti-nucleic acid antibody 3D8, purified as a single domain; also called VH chain; VH domain
For B2, the binding result is given as “no binding (tested: 5 to 20 µM)”.
